Source: article PMC3072279 (Biochemistry, 2011)

Biological target: the molecule itself
Assay: SEC-MALS

B1: DCAF1 817–1507, C-terminally His6-tagged (domain or fragment)
chain: not shown
  stoichiometry N: 2
